Assay results: the supplement of paper PMC10126150
± gives the standard deviation of the averaged measurements.

What follows are sequences tested on ATP (assay: switch fluorescence ratio, 500 uM ATP over buffer (Cy3 cluster intensity, sum of 5 cycles each) (fold (ratio)); higher = stronger signal-on switching upon ATP binding; sequences stand for … in TCGTCGGCAGCGTCAGATGTGTATAAGAGACAGTTTTTTTTTTTTTTTTTTTTTTTTT…TC). Details: aptamer strand: ATP DNA aptamer (quencher-CACCTGGGGGAGTATTGCGGAGGAAGG + anchor), 100 nM annealed; ATP concentration: 500 uM.
In short: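 Imaging in selection buffer was followed by imaging after 15 min with 500 uM ATP at 22 °C, for Cy3-labelled switching-strand clusters annealed to 100 nM quencher-labelled ATP aptamer on a modified Illumina MiSeq flow-cell. Five of these buffer/ATP cycles ran, separated by NaOH stripping and re-annealing. The fluorescence ratio per cluster is summed target-cycle over summed buffer-cycle Cy3 intensity, averaged per switch-domain sequence; clusters outside 100-1000 RFU were removed.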
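Note: ATP exposure 15 min at 22 °C before imaging.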

| Sequence | switch fluorescence ratio |
| --- | --- |
| GGGTAGGCGT | 0.999 ± 0.062 |
| GGGTAGGGAC | 1.01 ± 0.026 |
| GGGTAGGGTA | 0.9864 ± 0.0082 |
| GGGTAGGGTT | 0.9832 ± 0.0077 |
| GGGTAGTTCA | 1.009 ± 0.0069 |
| GGGTAGTTGG | 0.998 ± 0.082 |
| GGGTATAATA | 1.01 ± 0.014 |
| GGGTATAGGG | 1.01 ± 0.037 |
| GGGTATATAG | 1.02 ± 0.036 |
| GGGTATCAG | 0.955 ± 0.03 |
| GGGTATCTCG | 0.9938 ± 0.0063 |
| GGGTATGCAT | 0.973 ± 0.011 |
| GGGTATGGGG | 1.01 ± 0.031 |
| GGGTATGTCC | 0.989 ± 0.026 |
| GGGTATTAGC | 0.982 ± 0.053 |
| GGGTATTGGA | 0.9828 ± 0.0047 |
| GGGTATTGTT | 0.995 ± 0.024 |
| GGGTATTTGG | 0.987 ± 0.042 |
| GGGTCAAGGA | 0.995 ± 0.019 |
| GGGTCAATAT | 1.13 ± 0.032 |
| GGGTCAGGGC | 1.06 ± 0.062 |
| GGGTCAGGGG | 1.09 ± 0.077 |
| GGGTCAGTCC | 0.978 ± 0.019 |
| GGGTCAGTGG | 0.976 ± 0.035 |
| GGGTCCATCT | 1 ± 0.013 |
| GGGTCCGAGA | 1.31 ± 0.4 |

| Sequence | switch fluorescence ratio |
| --- | --- |
| GGGTCGCAGC | 0.998 ± 0.015 |
| GGGTCGTGCT | 1.03 ± 0.022 |
| GGGTCTAGAG | 1.0295 ± 0.00078 |
| GGGTCTAGCG | 1.01 ± 0.0065 |
| GGGTCTATCG | 0.989 ± 0.034 |
| GGGTCTGGGT | 0.984 ± 0.026 |
| GGGTGAAATA | 1.02 ± 0.019 |
| GGGTGAAGAT | 1.011 ± 0.0088 |
| GGGTGACAGG | 0.978 ± 0.017 |
| GGGTGAGCTT | 1.01 ± 0.029 |
| GGGTGATTGG | 0.993 ± 0.018 |
| GGGTGCACGG | 1.01 ± 0.021 |
| GGGTGCCCTA | 0.986 ± 0.051 |
| GGGTGCGCTG | 1.03 ± 0.014 |
| GGGTGGAAGT | 0.981 ± 0.023 |
| GGGTGGATGG | 0.985 ± 0.024 |
| GGGTGGCCGT | 0.961 ± 0.029 |
| GGGTGGGAAT | 1.01 ± 0.043 |
| GGGTGGGACG | 1.23 ± 0.16 |
| GGGTGGGGAC | 0.975 ± 0.015 |
| GGGTGGGTTG | 1 ± 0.039 |
| GGGTGGGTTT | 1 ± 0.018 |
| GGGTGGTGGC | 0.964 ± 0.082 |
| GGGTGGTGTT | 1.01 ± 0.021 |
| GGGTGGTTGC | 0.99544 ± 4.2e-05 |
| GGGTGTACTG | 1 ± 0.0089 |

| Sequence | switch fluorescence ratio |
| --- | --- |
| GGGTGTAGAG | 1.05 ± 0.078 |
| GGGTGTGCCA | 1 ± 0.027 |
| GGGTGTGTTT | 0.985 ± 0.018 |
| GGGTGTTAGC | 1.02 ± 0.046 |
| GGGTGTTCTT | 0.997 ± 0.034 |
| GGGTGTTGAC | 0.993 ± 0.018 |
| GGGTTAACCT | 1.06 ± 0.075 |
| GGGTTAAGCT | 0.989 ± 0.029 |
| GGGTTAAGGA | 0.989 ± 0.036 |
| GGGTTAAGTC | 0.983 ± 0.028 |
| GGGTTAATGC | 1.03 ± 0.047 |
| GGGTTACGAT | 0.994 ± 0.021 |
| GGGTTAGAAG | 0.9797 ± 0.008 |
| GGGTTAGACT | 1.07 ± 0.086 |
| GGGTTAGCCT | 0.999 ± 0.011 |
| GGGTTAGGTA | 0.96 ± 0.053 |
| GGGTTATACG | 1.04 ± 0.031 |
| GGGTTATCCT | 1.07 ± 0.047 |
| GGGTTATGGA | 0.971 ± 0.021 |
| GGGTTATTCT | 1.01 ± 0.049 |
| GGGTTCACGG | 1 ± 0.014 |
| GGGTTCCGTG | 1.01 ± 0.024 |
| GGGTTCGGGG | 1 ± 0.056 |
| GGGTTCTGTA | 0.985 ± 0.03 |
| GGGTTCTTAT | 0.992 ± 0.027 |
| GGGTTGAAAA | 0.999 ± 0.039 |

| Sequence | switch fluorescence ratio |
| --- | --- |
| GGGTTGAATG | 0.978 ± 0.014 |
| GGGTTGACTT | 1.015 ± 0.0018 |
| GGGTTGAGAG | 0.985 ± 0.026 |
| GGGTTGATTA | 0.9898 ± 0.0084 |
| GGGTTGCAGC | 0.992 ± 0.032 |
| GGGTTGCCGA | 1.09 ± 0.19 |
| GGGTTGGAAA | 0.989 ± 0.03 |
| GGGTTGGAGG | 0.995 ± 0.021 |
| GGGTTGTGTA | 1 ± 0.014 |
| GGGTTGTGTT | 0.978 ± 0.013 |
| GGGTTTACTA | 0.9552 ± 0.0018 |
| GGGTTTATAA | 0.987 ± 0.023 |
| GGGTTTATAT | 0.997 ± 0.022 |
| GGGTTTATTT | 0.982 ± 0.014 |
| GGGTTTCAAT | 0.9372 ± 0.0067 |
| GGGTTTCAGC | 1 ± 0.053 |
| GGGTTTGAT | 1.03 ± 0.025 |
| GGGTTTGATG | 0.984 ± 0.035 |
| GGGTTTGGGA | 0.9899 ± 0.0088 |
| GGGTTTGGTG | 0.987 ± 0.02 |
| GGGTTTTGAA | 0.984 ± 0.021 |
| GGGTTTTGG | 0.998 ± 0.017 |
| GGGTTTTGGT | 0.978 ± 0.022 |
| GGGTTTTTGA | 1.02 ± 0.024 |
| GGGTTTTTTG | 1 ± 0.031 |
| GGTAAAAGGT | 1.02 ± 0.051 |

| Sequence | switch fluorescence ratio |
| --- | --- |
| GGTAAAATTT | 1 ± 0.03 |
| GGTAAAGACG | 0.992 ± 0.013 |
| GGTAAAGTTG | 1.07 ± 0.098 |
| GGTAAATATG | 1 ± 0.019 |
| GGTAAATATT | 0.9981 ± 0.0046 |
| GGTAACCGGG | 1.019 ± 0.0016 |
| GGTAACTTTG | 0.989 ± 0.031 |
| GGTAATTGGG | 1.19 ± 0.27 |
| GGTAATTTTT | 1.01 ± 0.034 |
| GGTACCAGTT | 1.01 ± 0.012 |
| GGTACCATTG | 0.991 ± 0.03 |
| GGTACCCTGG | 1.03 ± 0.014 |
| GGTACTATTT | 1 ± 0.026 |
| GGTACTCGGG | 0.961 ± 0.013 |
| GGTACTCGTT | 0.991 ± 0.016 |
| GGTACTCTTT | 1 ± 0.037 |
| GGTACTGGGA | 0.997 ± 0.0025 |
| GGTAGAGACT | 0.9755 ± 0.0023 |
| GGTAGAGGGC | 0.973 ± 0.061 |
| GGTAGAGTTG | 0.9758 ± 0.0062 |
| GGTAGATGTC | 1.01 ± 0.054 |
| GGTAGCGGGG | 1.02 ± 0.014 |
| GGTAGGAAAA | 0.972 ± 0.076 |
| GGTAGGAGCT | 1.02 ± 0.058 |
| GGTAGGGAGC | 0.993 ± 0.055 |
| GGTAGGGTGC | 0.985 ± 0.074 |

| Sequence | switch fluorescence ratio |
| --- | --- |
| GGTAGTACGG | 0.983 ± 0.014 |
| GGTAGTAGAG | 1.02 ± 0.011 |
| GGTAGTAGTA | 1 ± 0.034 |
| GGTAGTGAGT | 0.9765 ± 0.0078 |
| GGTAGTGTGG | 0.992 ± 0.023 |
| GGTATAGGCT | 0.996 ± 0.014 |
| GGTATAGGGT | 0.981 ± 0.01 |
| GGTATCGGTA | 1.005 ± 0.0094 |
| GGTATCGGTT | 0.992 ± 0.045 |
| GGTATGACCC | 1.0394 ± 0.00014 |
| GGTATGAGAC | 1.01 ± 0.044 |
| GGTATGGAGT | 1.013 ± 0.0057 |
| GGTATGGGAT | 1.022 ± 0.0059 |
| GGTATGGGGG | 1.02 ± 0.031 |
| GGTATGTGTT | 0.987 ± 0.04 |
| GGTATTACGT | 0.972 ± 0.032 |
| GGTATTGGGG | 1.03 ± 0.034 |
| GGTATTTACA | 1.034 ± 0.0033 |
| GGTCAAGCTG | 1 ± 0.044 |
| GGTCAGGGTC | 1.01 ± 0.062 |
| GGTCATCTTG | 0.975 ± 0.02 |
| GGTCATTTTT | 0.995 ± 0.021 |
| GGTCCAGTGA | 1.02 ± 0.023 |
